Experimental data as given in patent US7229806B2, “Microbial conversion of glucose to para-hydroxystyrene” (E. I. du Pont de Nemours and Company, priority 2002, dated 2007).
Where a chain is given by its changes, count along the chain named.

Legend:
[1] = molecular target: TAL activity of the PAL/TAL enzyme (Rhodotorula toruloides, UniProt P11544); assay: Inhibition of TAL activity by pHCA; assay type: biochemical, R. glutinis
Text: (§1) An E. coli strain containing the wild type pal/tal gene (PAL/TAL ratio of 2.0) uses both PAL and TAL routes to convert glucose to both CA and pHCA. […] Based on the kinetic information it is expected that the presence of phenylalanine would interfere with the TAL activity of the enzyme.

[2] = test system: E. coli NST74; assay: Toxicity of pHCA and pHS to the cells; assay type: cell-based; conditions: previous studies
[3] = Characterization of purified PDC enzymes (pHCA as substrate); assay type: biochemical; conditions: PDC enzyme
Description: The reaction was initiated by the addition of 1.0 μL of enzyme to a 1.0 mL solution containing 25 mM phosphate buffer, pH 6.0, and 0.2 mM pHCA in a plastic, UV transparent cuvette. The reaction was then followed for 5 minutes spectrophotometrically at 315 nm at room temperature, using a molar extinction coefficient of […] for pHCA disappearance. The specific activity was expressed as micromoles of pHCA degraded per minute per milligram of protein.
The characteristics of the PDC enzymes isolated from L. plantarum and B. subtilis were obtained using standard spectrometric and electrophoretic techniques and are listed in Table 5.

[4] = TAL/PAL activity ratio of wild type and mutant PAL/TAL enzymes, separate TAL and PAL measurements in whole cells; assay type: biochemical; conditions: ratio of TAL catalytic activity to PAL catalytic activity
Description: In order to select for those mutants having genes encoding proteins with enhanced TAL activity, a selection system based on the reversibility of the tyrosine to PHCA reaction was developed. It will be appreciated that the TAL activity responsible for the conversion of tyrosine to pHCA is in a state of equilibrium with the opposite reaction. Mutant genes were cloned by standard methods into E. coli tyrosine auxotrophs, unable to grow in the absence of tyrosine. Transformants were plated on tyrosine minus medium in the presence of suitable concentrations of pHCA. Those colonies which grew under these conditions were picked and analyzed for the presence of the mutant gene. In this fashion, a gene was isolated that expressed an enzyme having a catalytic efficiency of about 12.6×10^3 M^−1sec^−1 and a ratio of TAL catalytic activity to PAL catalytic activity of 1.7 compared to 0.5 for the wild type.
A simple method is disclosed that relies on separate measurements of the TAL and PAL activities in whole cells. The ratio of TAL to PAL activity then may be calculated and quickly compared to wild type activity, to monitor changes in the bio-catalyst activity.
Using the above approach Applicants have identified a variety of mutant PAL enzymes that have increased TAL activity, compared to the wild type gene. These mutants were identified using the methods of mutagenesis and screening described above. The mutants, the altered amino acid residues, and the TAL/PAL activity are summarized below.

[5] = Kinetic studies with the PAL/TAL enzyme (Vmax, PAL/TAL ratio); assay type: biochemical
Text: as §1

With `O=C(O)C=Cc1ccc(O)cc1` [pHCA, para-Hydroxycinnamic acid] the Ki [1] was 16 µM and the “toxic to the cells” value [2] was “toxic”.

For `C=Cc1ccc(O)cc1` [pHS, para-Hydroxystyrene], the “toxic to the cells” value [2] was “toxic” and the “concentration showing toxicity to the cells” value ([2]; as low as) was no less than 500 µg/mL.

B1: B. subtilis: para-hydroxycinnamic acid decarboxylase (pdc2) from B. subtilis, SEQ ID NO:6, expressed in E. coli and purified (protein, listed as Bacillus subtilis)
chain: MENFIGSHMIYTYENGWEYEIYIKNDHTIDYRIHSGMVAGRWVRDQEVNIVKLTEGVYKVSWTEPTGTDVSLNFMPNEKRMHGIIFFPKWVHEHPEITVCYQNDHIDLMKESREKYETYPKYVVPEFAEITFLKNEGVDNEEVISKAPYEGMTDDIRAGRL
Work on B1 yielded a Km [3] of 1300 µM.

B2: Wild Type PAL: wild type phenylalanine-tyrosine ammonia lyase (pal/tal) enzyme from R. glutinis, SEQ ID NO:2 (protein, listed as Rhodotorula glutinis)
chain: MAPSLDSISHSFANGVASAKQAVNGASTNLAVAGSHLPTTQVTQVDIVEKMLAAPTDSTLELDGYSLNLGDVVSAARKGRPVRVKDSDEIRSKIDKSVEFLRSQLSMSVYGVTTGFGGSADTRTEDAISLQKALLEHQLCGVLPSSFDSFRLGRGLENSLPLEVVRGAMTIRVNSLTRGHSAVRLVVLEALTNFLNHGITPIVPLRGTISASGDLSPLSYIAAAISGHPDSKVHVVHEGKEKILYAREAMALFNLEPVVLGPKEGLGLVNGTAVSASMATLALHDAHMLSLLSQSLTAMTVEAMVGHAGSFHPFLHDVTRPHPTQIEVAGNIRKLLEGSRFAVHHEEEVKVKDDEGILRQDRYPLRTSPQWLGPLVSDLIHAHAVLTIEAGQSTTDNPLIDVENKTSHHGGNFQAAAVANTMEKTRLGLAQIGKLNFTQLTEMLNAGMNRGLPSCLAAEDPSLSYHCKGLDIAAAAYTSELGHLANPVTTHVQPAEMANQAVNSLALISARRTTESNDVLSLLLATHLYCVLQAIDLRAIEFEFKKQFGPAIVSLIDQHFGSAMTGSNLRDELVEKVNKTLAKRLEQTNSYDLVPRWHDAFSFAAGTVVEVLSSTSLSLAAVNAWKVAAAESAISLTRQVRETFWSAASTSSPALSYLSPRTQILYAFVREELGVKARRGDVFLGKQEVTIGSNVSKIYEAIKSGRINNVLLKMLA
In the case of B2, the TAL/PAL ratio [4] is reported as 0.5, the “Vmax for PAL” value ([5]; previous kinetic studies) is reported as 5.5 and the “Vmax for TAL” value ([5]; previous kinetic studies) is reported as 0.76. For the same molecule, the PAL/TAL ratio ([5]; wild type pal/tal gene in E. coli) was 2.0.

B3: RM120-1: mutant TAL enzyme, SEQ ID NO:14 (protein)
chain: B2 chain with D126X, Q138X, I540X
modifications: Mutant from Rhodotorula glutinis
B3 gave a TAL/PAL ratio [4] of 7.2.

B4: RM120-4: mutant TAL enzyme, SEQ ID NO:16 (protein)
chain: B2 chain with S181X, V235X, I540X
modifications: Mutant from Rhodotorula glutinis
B4 showed a TAL/PAL ratio [4] of 2.0.

B5: RM120-7: mutant TAL enzyme, SEQ ID NO:17 (protein)
chain: B2 chain with S149X, I202X, I540X
modifications: Mutant from Rhodotorula glutinis
Molecule B5 has a TAL/PAL ratio [4] of 0.8.

B6: RM492-1: mutant TAL enzyme, SEQ ID NO:18 (protein)
chain: MAPSLDSISHSFANGVASAKQAVNGASTNLAVAGSHLPTTQVTQVDIVEKMLAAPTDSTLELDGYSLNLGDVVSAARKGRPVRVKDSDEIRSKIDKSVEFLRSQLSMSVYGVTTGFGGSADTRTEDAISLQKALLEHQLCGVLPSSFDSFRLGRGLENSLPLEVVRGAMTIRVNSLTRGHSAVRLVVLEALTNFLNHGITPIVPLRGTISASGDLSPLSYIAAAISGHPDSKVHVVHEGKEKILYAREAMALFNLEPVVLGPKEGLGLVNGTAVSASMATLALHDAHMLSLLSQSLTAMTVEAMVGHAGSFHPFLHDVTRPHPTQIEVAGNIRKLLEGSRFAVHHEEEVKVKDDEGILRQDRYPLRTSPQWLGPLVSDLIHAHAVLTIEAGQSTTDNPLIDVENKTSHHGGNFQAAAVANTMEKTRLGLAQIGKLNFTQLTEMLNAGMNRGLPSCLAAEDPSLSYHCKGLDIAAAAYTSELGHLANPVTTHVQPAEMANQAGNSLALISARRTTESNDVLSLLLATHLYCVLQAIDLRATEFEFKKQFGPAIVSLIDQHFGSAMTGSNLRDELVEKVNKTLAKRLEQTNSYDLVPRWHDAFSFAAGTVVEVLSSTSLSLAAVNAWKVAAAESAISLTRQVRETFWSAASTSSPALSYLSPRTQILYAFVREELGVKARRGDVFLGKQEVTIGSNVSKIYEAIKSGRINNVLLKMLA
modifications: not fully specified
B6 showed a TAL/PAL ratio [4] of 2.0.

B7: L. plantarum: para-hydroxycinnamic acid decarboxylase (pdc1) from L. plantarum, SEQ ID NO:4, expressed in E. coli and purified (protein, listed as Lactobacillus plantarum)
chain: MTKTFKTLDDFLGTHFIYTYDNGWEYEWYAKNDHTVDYRIHGGMVAGRWVTDQKADIVMLTEGIYKISWTEPTGTDVALDFMPNEKKLHGTIFFPKWVEEHPEITVTYQNEHIDLMEQSREKYATYPKLVVPEFANITYMGEGQNNEDVISEAPYKEMPNDIRNGKYLIKTTIV
With B7 the Km [3] was 1400 µM.
